Source: US20090175889A1

Key:
Test in all cases: cell-based or functional assay
[1] = target: human CXCR4 (on U87 human astroglioma cells stably transduced with human CXCR4) (human) (UniProt P61073)
[2] = target: HIV-1 89.6 Env glycan mutant N7 (N197Q) (HIV-1 isolate 89.6) (UniProt Q73372)
[3] = target: HIV-1 89.6 Env glycan mutant NV3 (N301Q) (HIV-1 isolate 89.6) (UniProt Q73372)
[4] = target: HIV-1 89.6 Env triple glycan mutant N67V3 (N6, N7 and NV3: N187Q, N197Q, N301Q) (HIV-1 isolate 89.6) (UniProt Q73372)

Sequence of UniProt P61073 (P61073 whole entry): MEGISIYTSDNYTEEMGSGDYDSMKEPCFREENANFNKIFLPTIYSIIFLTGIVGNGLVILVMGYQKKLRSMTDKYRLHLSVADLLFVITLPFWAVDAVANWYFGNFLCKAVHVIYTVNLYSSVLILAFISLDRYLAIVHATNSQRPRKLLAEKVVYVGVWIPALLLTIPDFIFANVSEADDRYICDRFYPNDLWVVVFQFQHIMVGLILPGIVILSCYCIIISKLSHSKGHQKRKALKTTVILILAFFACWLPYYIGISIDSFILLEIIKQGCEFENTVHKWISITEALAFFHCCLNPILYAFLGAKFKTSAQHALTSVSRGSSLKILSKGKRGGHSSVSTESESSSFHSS

HIV-1 89.6 Env glycan mutant N7 (N197Q) (from UniProt Q73372 32-853)
relative infectivity of pseudotyped virus in U87-CXCR4 cells in the absence of CD4 (vs WT virus) [1]: 10 fold

HIV-1 89.6 Env glycan mutant NV3 (N301Q) (from UniProt Q73372 32-853)
increase in infectivity in CD4-negative cells as compared to WT Env [1]: 2 to 3 fold

monoclonal antibody 2G12
increase in neutralization sensitivity (vs WT) [2]: 3 fold | decrease in neutralization sensitivity (vs WT) [3]: 2 to 3 fold

monoclonal antibody 4E10
increase in neutralization sensitivity (vs WT) [2]: 3 fold | increase in neutralization sensitivity (vs WT) [4]: 3 fold

monoclonal antibody 17b
sensitivity to 17b without sCD4, compared to the WT or the N6 and NV3 mutants in the presence of sCD4 [2]: 30 fold | sensitivity to 17b without sCD4, compared to the WT or the N6 and NV3 mutants in the presence of sCD4 [4]: 30 fold

monoclonal antibody IgG1b12
enhancement in neutralization sensitivity compared to wild-type 89.6 [2]: 60 fold

recombinant sCD4-Ig (from UniProt P01730 26-204) (Fc fusion)
enhancement in neutralization sensitivity compared to wild-type 89.6 [2]: 50 fold
